From patent publication US20190015361A1 (published 2019)

B1: Ovalbumin (Sigma-Aldrich, A5503) (other, UniProt P01012 2-386, looked up)
chain: GSIGAASMEFCFDVFKELKVHHANENIFYCPIAIMSALAMVYLGAKDSTRTQINKVVRFDKLPGFGDSIEAQCGTSVNVHSSLRDILNQITKPNDVYSFSLASRLYAEERYPILPEYLQCVKELYRGGLEPINFQTAADQARELINSWVESQTNGIIRNVLQPSSVDSQTAMVLVNAIVFKGLWEKAFKDEDTQAMPFRVTEQESKPVQMMYQIGLFRVASMASEKMKILELPFASGTMSMLVLLPDEVSGLEQLESIINFEKLTEWTSSNVMEERKIKVYLPRMKMEEKYNLTSVLMAMGITDVFSSSANLSGISSAESLKISQAVHAAHAEINEAGREVVGSAEAGVDAASVSEEFRADHPFLFCIKHIATNAVLFFGRCVSP
notes: Negative control analyte in SPRi, injected at 10 µM; also called non-correlated protein; negative control sample
B2: human cathelicidin peptide LL-37 (peptide, UniProt P49913 134-170, looked up)
peptide: LLGDFFRKSKEKIGKEFKRIVQRIKDFLRNLVPRTES
notes: range 134-170; Synthetic peptide; from Innovagen for SPRi/TEM/CD, from AnaSpec for the cell culture work; also called cathelicidin LL-37

Legend:
[1] = molecular target: T1, Aβ42 (t=24 days) (human, UniProt P05067 672-713); experiment: SPRi, Aβ forms spotted on chip, ovalbumin injected
T1 construct: domain: Aβ42 (residues 1-42 of the Aβ peptide); enriched in high-MW oligomers by CE; also called Aβ42 high-MW oligomers

[2] = molecular target: T2, Aβ42 (t=0 days) (human, UniProt P05067 672-713); experiment: SPRi, Aβ forms spotted on chip, ovalbumin injected
T2 construct: domain: Aβ42 (residues 1-42 of the Aβ peptide); HFIP / CH3CN-Na2CO3-NaOH preparation, diluted to 20 µM in phosphate buffer and spotted on the SPRi chip immediately; mainly low-MW oligomers by CE; also called Aβ42 low-MW oligomers

[3] = molecular target: T3, Aβ40 (t=0 days) (UniProt P05067 672-711); experiment: SPRi, Aβ forms spotted on chip, ovalbumin injected
T3 construct: domain: Aβ40; Dissolved in PBS and spotted at 20 µM on the SPRi chip immediately after solubilization; mainly low-MW oligomers by CE; also called Aβ40 low-MW oligomers; Aβ40 solubilized in PBS

[4] = molecular target: T1, Aβ42 (t=24 days); experiment: SPRi, Aβ spotted on chip at 20 µM, LL-37 injected 1-100 µM, nonlinear fit of response at equilibrium

T1 sequence (P05067 672-713 limits assumed): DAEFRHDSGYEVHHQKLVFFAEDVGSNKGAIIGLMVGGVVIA
T3 sequence (P05067 672-711 limits assumed): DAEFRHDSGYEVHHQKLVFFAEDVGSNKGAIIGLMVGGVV
T2 sequence (P05067 672-713 limits assumed): as the sequence (P05067 672-713 limits assumed) above

Binder | binding result [1] | binding result [2] | binding result [3] | Ka [4] [M⁻¹] | Kd [4] [µM]
B1 | no binding (tested: 10 µM) | no binding (tested: 10 µM) | no binding (tested: 10 µM) |  | 
B2 |  |  |  | 49200 | 20.3
